Legend:
[1] = molecular target: peptide-deficient (empty) HLA-B*37:01/hb2m (human); assay: SPR, TAPBPR-biotin on streptavidin chip, UV-irradiated (empty) HLA as analyte; settings: remark: other sources report otherwise
[2] = molecular target: 96 HLA-I allotypes on single antigen beads (SABs); assay: SAB tetramer assay, ratio to W6/32 control

B1: human TAPBPR luminal domain (hTAPBPR), Q9BX59 22-405 (protein)
chain: KPHPAEGQWRAVDVVLDCFLAKDGAHRGALASSEDRARASLVLKQVPVLDDGSLEDFTDFQGGTLAQDDPPIIFEASVDLVQIPQAEALLHADCSGKEVTCEISRYFLQMTETTVKTAAWFMANMQVSGGGPSISLVMKTPRVTKNEALWHPTLNLPLSPQGTVRTAVEFQVMTQTQSLSFLLGSSASLDCGFSMAPGLDLISVEWRLQHKGRGQLVYSWTAGQGQAVRKGATLEPAQLGMARDASLTLPGLTIQDEGTYICQITTSLYRAQQIIQLNIQASPKVRLSLANEALLPTLICDIAGYYPLDVVVTWTREELGGSPAQVSGASFSSLRQSVAGTYSISSSLTAEPGSAGATYTCQVTHISLEEPLGASTQVVPPERR
Kd [1]: 7.02 µM

B2: mouse TAPBPR luminal domain (moTAPBPR) (protein, UniProt Q8VD31 21-412, looked up)
chain: TDPPTAPTTAERQRQPTDIILDCFLVTEDRHRGAFASSGDRERALLVLKQVPVLDDGSLEGITDFQGSTETKQDSPVIFEASVDLVQIPQAEALLHADCSGKAVTCEISKYFLQARQEATFEKAHWFISNMQVSRGGPSVSMVMKTLRDAEVGAVRHPTLNLPLSAQGTVKTQVEFQVTSETQTLNHLLGSSVSLHCSFSMAPGLDLTGVEWRLQHKGSGQLVYSWKTGQGQAKRKGATLEPEELLRAGNASLTLPNLTLKDEGNYICQISTSLYQAQQIMPLNILAPPKIQLHLANKDPLPSLVCSIAGYYPLDVGVTWIREELGGIPAQVSGASFSSLRQSTMGTYSISSTVMADPGPTGATYTCQVAHVSLEEPLTTSMRVLPNPEQRG
MFI ratio [2]: < 5.8

From patent publication US20250179143A1, “SYSTEMS AND METHODS FOR CHAPERONE-MEDIATED LIGAND EXCHANGE ON MHC-I AND MHC-RELATED MOLECULES USING CHICKEN TAPBPR” (priority 2022, published 2025)
